Assay results: US20190218268A1 (INDIANA UNIVERSITY RESEARCH AND TECHNOLOGY, published 2019)
Square brackets hold non-standard residues; d marks the D form. Ends that are not written are not given here. 3Pal = N[C@@H](Cc1cccnc1)C(=O)O; 4Pal = N[C@@H](Cc1ccncc1)C(=O)O; Aib = CC(C)(N)C(=O)O

biological target: human GLP-1 receptor (human, UniProt P43220 24-463); test: cell-based or functional assay

Point of comparison: HSQGTFTSDYSKYLD[Aib]RRA[dQ]DFVQWLMDT [Glucagon analog Aib16, q20, D28 (SEQ ID NO: 980)], “hGLP-1R EC50 (pM)” value 7480 pM. Against it:
- HSQGTFTSDXSKYLDXRRAXDFVQWLMNT (3-Pal at position 10; Aib at position 16; dGln at position 20) [Glucagon analog 3-Pal10, Aib16, q20 (SEQ ID NO: 971)] — higher, > 10000 pM
- HSQGTFTSDYSKYLD[Aib]RRA[dQ]DFVQWLMDE [Glucagon analog Aib16, q20, D28, E29 (SEQ ID NO: 981)] — higher, > 10000 pM

biological target: human glucagon receptor (human, UniProt P47871 26-477); test: cell-based or functional assay
Sequence (P47871 26-477): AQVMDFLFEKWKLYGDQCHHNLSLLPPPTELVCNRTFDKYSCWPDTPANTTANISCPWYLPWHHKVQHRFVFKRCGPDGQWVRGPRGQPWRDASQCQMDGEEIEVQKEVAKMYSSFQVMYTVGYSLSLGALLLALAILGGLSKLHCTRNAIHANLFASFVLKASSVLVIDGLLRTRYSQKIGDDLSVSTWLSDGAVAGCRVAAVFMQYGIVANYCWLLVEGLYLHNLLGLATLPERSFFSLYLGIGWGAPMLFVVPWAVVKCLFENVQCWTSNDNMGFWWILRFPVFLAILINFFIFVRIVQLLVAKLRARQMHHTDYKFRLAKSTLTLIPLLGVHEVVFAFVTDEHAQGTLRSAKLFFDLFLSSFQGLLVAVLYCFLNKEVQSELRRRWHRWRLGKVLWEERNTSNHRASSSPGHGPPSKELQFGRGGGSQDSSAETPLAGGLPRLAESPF

Point of comparison: HSQGTFTSDXSKYLDXRRAXDFVQWLMNT (3-Pal at position 10; Aib at position 16; dGln at position 20) [Glucagon analog 3-Pal10, Aib16, q20 (SEQ ID NO: 971)], “hGcgR EC50 (pM)” value 86 pM. Against it:
- HSQGTFTSDYSKYLD[Aib]RRA[dQ]DFVQWLMDT [Glucagon analog Aib16, q20, D28 (SEQ ID NO: 980)] — lower, 33 pM
- HSQGTFTSDYSKYLD[Aib]RRA[dQ]DFVQWLMDE [Glucagon analog Aib16, q20, D28, E29 (SEQ ID NO: 981)] — lower, 18 pM

biological target: glucagon receptor (co-transfected in HEK293 cells with a CRE-luciferase reporter); test: cell-based or functional assay

Point of comparison: HSQGTFTSD[3Pal]SKYLD[Aib]RRAQDFVQWLMNT [Glucagon analog 4], “% bioactivity of GCG” value 76%. Against it:
- HSQGT[4Pal]TSD[4Pal]SK[4Pal]LD[Aib]RRAQDFVQWLMNT [Glucagon analog 10] — lower, 24%
- HSQGT[3Pal]TSD[3Pal]SK[3Pal]LD[Aib]RRAQD[3Pal]VQWLMNT [Glucagon analog 11] — lower, 1%
- HSQGTFTSDYSK[3Pal]LD[Aib]RRAQDFVQWLMNT [Glucagon analog 5] — lower, 54%
- HSQGTFTSDYSK[4Pal]LD[Aib]RRAQDFVQWLMNT [Glucagon analog 6] — lower, 60%
- HSQGTFTSD[3Pal]SK[3Pal]LD[Aib]RRAQDFVQWLMNT [Glucagon analog 7] — lower, 57%
- HSQGTFTSD[4Pal]SK[4Pal]LD[Aib]RRAQDFVQWLMNT [Glucagon analog 8] — lower, 66%
- HSQGT[3Pal]TSD[3Pal]SK[3Pal]LD[Aib]RRAQDFVQWLMNT [Glucagon analog 9] — lower, 28%

Point of comparison: HSQGT[3Pal]TSD[3Pal]SK[3Pal]LD[Aib]RRAQDFVQWLMNT [Glucagon analog 9], “EC50 [nM] (SDV), luciferase-based glucagon receptor cAMP reporter assay” value 0.0714 nM. Against it:
- HSQGT[4Pal]TSD[4Pal]SK[4Pal]LD[Aib]RRAQDFVQWLMNT [Glucagon analog 10] — within 1.5-fold, 0.0843 nM
- HSQGT[3Pal]TSD[3Pal]SK[3Pal]LD[Aib]RRAQD[3Pal]VQWLMNT [Glucagon analog 11] — 33-fold higher, 2.33 nM
- HSQGTFTSD[3Pal]SKYLD[Aib]RRAQDFVQWLMNT [Glucagon analog 4] — 2.7-fold lower, 0.0268 nM
- HSQGTFTSDYSK[3Pal]LD[Aib]RRAQDFVQWLMNT [Glucagon analog 5] — 1.9-fold lower, 0.0379 nM
- HSQGTFTSDYSK[4Pal]LD[Aib]RRAQDFVQWLMNT [Glucagon analog 6] — 2.1-fold lower, 0.0339 nM
- HSQGTFTSD[3Pal]SK[3Pal]LD[Aib]RRAQDFVQWLMNT [Glucagon analog 7] — 2-fold lower, 0.0359 nM
- HSQGTFTSD[4Pal]SK[4Pal]LD[Aib]RRAQDFVQWLMNT [Glucagon analog 8] — 2.3-fold lower, 0.0309 nM
